Measurements reported in article PMC7419483, “Phenolic metabolism in the hornwort Anthoceros agrestis: 4-coumarate CoA ligase and 4-hydroxybenzoate CoA ligase” (Plant Cell Reports, 2020).
One block for each molecule: values may come before it.

How the values were obtained:
Aa4CL_1 = Aa4CL_1 (Anthoceros agrestis, UniProt A0A6M6A6J9); assay: spectrophotometric CoA-ester formation, Michaelis-Menten; assay type: biochemical; conditions: pH 7.0 potassium phosphate, 40 °C
Description: spectrophotometric CoA-ester formation, Michaelis-Menten on Aa4CL_1

purified protein [1] = substrate: CC(C)(COP(=O)(O)OP(=O)(O)OC[C@H]1O[C@@H](n2cnc3c(N)ncnc32)[C@H](O)[C@@H]1OP(=O)(O)O)[C@@H](O)C(=O)NCCC(=O)NCCS; assay: purified protein; assay type: biochemical, Anthoceros agrestis; conditions: pH 7.0 potassium phosphate, 45 °C, co-substrates 4-hydroxybenzoic acid and ATP, MgCl2, 1 mM DTT
purified protein [2] = substrate: Nc1ncnc2c1ncn2[C@@H]1O[C@H](COP(=O)(O)OP(=O)(O)OP(=O)(O)O)[C@@H](O)[C@H]1O; assay: purified protein; conditions: pH 7.0 potassium phosphate, 45 °C, co-substrates 4-hydroxybenzoic acid and CoA, MgCl2, 1 mM DTT
purified protein [3] = substrate: O=C(O)c1ccc(O)cc1; assay: purified protein; conditions: apparent Km, pH 7.0 potassium phosphate, 45 °C, standard assay […] ATP, […] MgCl2, 500 µM CoA, 1 mM DTT
[4] = standard assay […] ATP, […] MgCl2, 500 µM CoA, 1 mM DTT
[5] = MgCl2, hydroxycinnamic acid co-substrate not stated

Sequence of Aa4CL_1 (A0A6M6A6J9 entry or part of it): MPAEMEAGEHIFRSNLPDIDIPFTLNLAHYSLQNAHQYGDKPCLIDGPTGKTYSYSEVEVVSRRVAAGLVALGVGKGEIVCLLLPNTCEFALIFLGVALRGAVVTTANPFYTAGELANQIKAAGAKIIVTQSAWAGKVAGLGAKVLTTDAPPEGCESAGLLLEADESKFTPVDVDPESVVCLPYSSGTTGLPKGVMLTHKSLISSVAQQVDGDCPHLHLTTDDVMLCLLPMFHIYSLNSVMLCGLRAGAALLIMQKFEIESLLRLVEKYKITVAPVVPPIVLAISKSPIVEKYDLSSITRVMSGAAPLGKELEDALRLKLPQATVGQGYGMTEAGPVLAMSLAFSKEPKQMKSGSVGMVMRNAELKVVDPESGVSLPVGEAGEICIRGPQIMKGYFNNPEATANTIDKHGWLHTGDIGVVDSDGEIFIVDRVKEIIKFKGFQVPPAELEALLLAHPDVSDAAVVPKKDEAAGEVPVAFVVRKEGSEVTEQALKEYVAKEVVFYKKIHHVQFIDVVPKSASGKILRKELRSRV

Km (Aa4CL_1; [5]): 227 ± 31.8 µM
Molecule: Nc1ncnc2c1ncn2[C@@H]1O[C@H](COP(=O)(O)OP(=O)(O)OP(=O)(O)O)[C@@H](O)[C@H]1O [ATP]

Km (Aa4CL_1; [5]): 10.2 ± 0.2 µM
Molecule: CC(C)(COP(=O)(O)OP(=O)(O)OC[C@H]1O[C@@H](n2cnc3c(N)ncnc32)[C@H](O)[C@@H]1OP(=O)(O)O)[C@@H](O)C(=O)NCCC(=O)NCCS [CoA]

Further lines, the molecule ahead of its results:

Molecule: O=C(O)/C=C/c1ccc(O)cc1 [4-coumaric acid]
Km (Aa4CL_1; [4]): 12.8 ± 4 µM

Molecule: O=C(O)/C=C/c1ccc(O)c(O)c1 [caffeic acid]
Km (Aa4CL_1; standard assay […] ATP, […] MgCl2, 500 µM CoA, no DTT): 15.5 ± 1.9 µM

Molecule: COc1ccc(/C=C/C(=O)O)cc1O [isoferulic acid]
Km (Aa4CL_1; [4]): 9.9 ± 1.8 µM

Molecule: O=C(O)/C=C/c1ccccc1 [cinnamic acid]
Km (Aa4CL_1; [4]): 218 ± 74.7 µM

Molecule: COc1cc(/C=C/C(=O)O)ccc1O [ferulic acid]
Km (Aa4CL_1; [4]): 61.4 ± 21.9 µM

B1: Aa4HBCL (Anthoceros agrestis) (protein)
chain: MASLSEPEHIFRSSLPAAAIPNVTVPEYILLNAIRPEDEHRVAVVDASDERQYTYGQTRILVKNVAAGLRNLLGIRKGDVVFVLLPNTAEYFILVLGIMWAGGVYSGGNPYAHPGEIEKQIQDSEAKVVVTDSTYFEKVKQFAHQLPILLTPVSSAAPTDKSVTPNPEGSTSVQRLLEYDGSEYVPPEPISQDDLCALPYSSGTTGLSKGVKLTHRNLLANTTRTCPIPAVPPTPAQLASVKRYVVLGLLPFFHIYGTTGICCSTMRYQGTLVVLPRYDLRLMLAALIKYEVTFTPLVPPIILQMVKSPIVNEFDLSKLKLEGVMTAAAPLPPDIQKAFEARFPGVELRQAYGLTEYSCITLSHVPLGYPRGNAKKGSVGFLIPGTEMKILDPDTGKSLPANRAGEICVRGESTMNGYFKNEEATAATIDEQGWLHTGDVGYIDDDGDVFIVERAKELIKYKGFQVPPAELEAILVAHPLIADAAVIPIPDDEAGELPAACVVLAPNSHLNEEDVIRYVGAKVASYKKVRHVEFVSSIPKSLSGKTLRRVLKDDILKRLKKTENQLI
Km (purified protein [1]): 247.8 ± 19.9 µM | Vmax (purified protein [1]): 1.95 µmol/min/mg | kcat (purified protein [1]): 2.2 ± 0.1 s⁻¹ | kcat/Km (purified protein [1]): 8700 M⁻¹ s⁻¹ | Km (purified protein [2]): 1175.3 ± 135.2 µM | Vmax (purified protein [2]): 1.4 µmol/min/mg | kcat (purified protein [2]): 1.6 s⁻¹ | kcat/Km (purified protein [2]): 1300 M⁻¹ s⁻¹ | Km (purified protein [3]): 664.2 ± 1.5 µM | Vmax (purified protein [3]): 0.99 µmol/min/mg | kcat (purified protein [3]): 1.1 s⁻¹ | kcat/Km (purified protein [3]): 1700 M⁻¹ s⁻¹
